# Assay results reported in patent publication US20250152742A1, “COMPOSITIONS AND METHODS FOR NEUROLOGICAL DISEASES” (Trames Bio, Inc., priority 2022, published 2025).
# Where a chain is given by its changes, count along the chain named. Names and notes keep the numbering of the source.
# B1: CODA334: engineered receptor: L131Q in SEQ ID NO: 33 (protein)
# chain: MRCSPGGVWLALAASLLHVSLQGEFQRKLYKELVKNYNPLERPVANDSQPLTVYFSLSLLQIMDVDEKNQVLTTNIWLQMSWTDHYLQWNVSEYPGVKTVRFPDGQIWKPDILLYNSADERFDATFHTNVQVNSSGHCQYLPPGIFKSSCPMDLKNFPMDVQTCKLKFGSWSYGGWSLDLQMQEADISGYIPNGEWDLVGIPGKRSERFYECCKEPYPDVTFTVTMRRRMGYYLIQMYIPSLLIVILSWISFWINMDAAPARVGLGITTVLTMTTQSSGSRASLPKVSYVKAIDIWMAVCLLFVFSALLEYAAVNFVSRQHKELLRFRRKRRHHKSPMLNLFQEDEAGEGRFNFSAYGMGPACLQAKDGISVKGANNSNTTNPPPAPSKSPEEMRKLFIQRAKKIDKISRIGFPMAFLIFNMFYWIIYKIVRREDVHNQ
# modifications: synthetic sequence of chimeric LGIC
# B2: CODA335: engineered receptor: L131T in SEQ ID NO: 33 (protein)
# chain: B1 chain with Q131T
# modifications: synthetic sequence of chimeric LGIC
# Test system: engineered chimeric receptor SEQ ID NO: 33 and its mutants (human α7-nAChR ligand binding domain / human GlyRα1 ion pore domain) in Lenti-X 293T cells
# Experiment: YFP fluorescence quenching anion reporter plate reader assay (percent quench, EC50)
# Type: cell-based
# Details: for YFP fluorescence quenching using CNL001 (percent quench): receptor named in row; for YFP fluorescence quenching using Facinicline, 30 nM fac: ligand Facinicline 30 nM; for YFP fluorescence quenching using Facinicline, 300 nM fac: ligand Facinicline 300 nM; for YFP fluorescence quenching using Facinicline, 30 uM fac: ligand Facinicline 30 uM; for YFP fluorescence quenching using TC-6987, 1 uM tc6987: ligand TC-6987 1 uM; for YFP fluorescence quenching using TC-6987, 10 uM tc6987: ligand TC-6987 10 uM; for YFP fluorescence quenching using TC-6987, 500 uM tc6987: ligand TC-6987 500 uM; for YFP fluorescence quenching using Varenicline, 3 nM var: ligand Varenicline 3 nM; for YFP fluorescence quenching using Varenicline, 30 nM var: ligand Varenicline 30 nM; for YFP fluorescence quenching using Varenicline, 300 nM var: ligand Varenicline 300 nM; for YFP fluorescence quenching using Varenicline, 500 nM var: ligand Varenicline 500 nM; for YFP fluorescence quenching using Varenicline, 1 uM var: ligand Varenicline 1 uM
# In short: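 Lenti-X 293T cells co-expressing an anion-quenchable YFP were transiently transfected with receptor DNA, then ligand was added in NaI-substituted buffer (pH 7.2) after 30 min at 37 °C. Fluorescence was read about 2 min; percent quench = mean of last 10 s over 15 s pre-ligand baseline.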
# [1] = 1 nM CNL001, first column so headed
# [2] = 1 nM CNL001, second column so headed
# [3] = 3 nM brd (TC-5619/Bradanicline)
# [4] = 10 nM CNL001, first column so headed
# [5] = 10 nM CNL001, second column so headed
# [6] = 30 nM brd (TC-5619/Bradanicline)
# [7] = 50 nM CNL001, first column so headed
# [8] = 50 nM CNL001, second column so headed
# [9] = 100 nM CNL001, first column so headed
# [10] = 100 nM CNL001, second column so headed
# [11] = 300 nM brd (TC-5619/Bradanicline)
# [12] = 1 uM CNL001, first column so headed
# [13] = 1 uM CNL001, second column so headed
molecule,measurement,setting,value
B1,YFP fluorescence quenching using CNL001 (percent quench),[1],76.165%
same,YFP fluorescence quenching using CNL001 (percent quench),[2],78.463%
same,YFP fluorescence quenching using TC-5619/Bradanicline (percent quench),[3],41.92%
same,YFP fluorescence quenching using CNL001 (percent quench),[4],79.349%
same,YFP fluorescence quenching using CNL001 (percent quench),[5],78.238%
same,YFP fluorescence quenching using TC-6683 (percent quench),30 nM TC-6683,−17.99%
same,YFP fluorescence quenching using TC-5619/Bradanicline (percent quench),[6],63.65%
same,YFP fluorescence quenching using CNL001 (percent quench),[7],80.221%
same,YFP fluorescence quenching using CNL001 (percent quench),[8],81.789%
same,YFP fluorescence quenching using ABT-126 (percent quench),50 nM abt (ABT-126),23.65%
same,YFP fluorescence quenching using CNL001 (percent quench),[9],82%
same,YFP fluorescence quenching using CNL001 (percent quench),[10],80.766%
same,YFP fluorescence quenching (percent quench),100 nM CNL002,49.9%
same,YFP fluorescence quenching using ABT-126 (percent quench),100 nM abt (ABT-126),61.83%
same,YFP fluorescence quenching using AZD-0328 (percent quench),100 nM azd0328,80.55%
same,YFP fluorescence quenching using TC-6683 (percent quench),300 nM TC-6683,−23.26%
same,YFP fluorescence quenching using ABT-126 (percent quench),300 nM abt (ABT-126),76.44%
same,YFP fluorescence quenching using AZD-0328 (percent quench),300 nM azd0328,83.15%
same,YFP fluorescence quenching using TC-5619/Bradanicline (percent quench),[11],64.85%
same,YFP fluorescence quenching using CNL001 (percent quench),[12],81.707%
same,YFP fluorescence quenching using CNL001 (percent quench),[13],82.665%
same,YFP fluorescence quenching (percent quench),1 uM CNL002,80.72%
same,YFP fluorescence quenching using ABT-126 (percent quench),1 uM abt (ABT-126),77.68%
same,YFP fluorescence quenching using TC-6683 (percent quench),3 uM TC-6683,−18.84%
same,YFP fluorescence quenching (percent quench),10 uM ach (acetylcholine),−2.63%
same,YFP fluorescence quenching (percent quench),30 uM CNL002,80.97%
same,YFP fluorescence quenching using TC-6683 (percent quench),30 uM TC-6683,−16.92%
same,YFP fluorescence quenching (percent quench),30 uM ach (acetylcholine),30.06%
same,YFP fluorescence quenching using AZD-0328 (percent quench),30 uM azd0328,82.53%
same,YFP fluorescence quenching using TC-6683 (percent quench),100 uM TC-6683,−15.59%
same,YFP fluorescence quenching (percent quench),100 uM ach (acetylcholine),71.27%
same,YFP fluorescence quenching (percent quench),1 mM ach (acetylcholine),79.66%
same,YFP fluorescence quenching (percent quench),3 mM ach (acetylcholine),74.9%
same,"YFP fluorescence quenching using Facinicline, 30 nM fac",,83.07
same,"YFP fluorescence quenching using Facinicline, 100 nM fac",ligand Facinicline 100 nM,85.36
same,"YFP fluorescence quenching using Facinicline, 300 nM fac",,84.19
same,"YFP fluorescence quenching using Facinicline, 30 uM fac",,82.75
same,"YFP fluorescence quenching using TC-6987, 1 uM tc6987",,74.1
same,"YFP fluorescence quenching using TC-6987, 10 uM tc6987",,81.7
same,"YFP fluorescence quenching using TC-6987, 500 uM tc6987",,80.18
same,"YFP fluorescence quenching using Varenicline, 3 nM var",first column,−5.192
same,"YFP fluorescence quenching using Varenicline, 3 nM var",second column,−4.327
same,"YFP fluorescence quenching using Varenicline, 30 nM var",first column,−0.688
same,"YFP fluorescence quenching using Varenicline, 30 nM var",second column,0.672
same,"YFP fluorescence quenching using Varenicline, 300 nM var",first column,75.189
same,"YFP fluorescence quenching using Varenicline, 300 nM var",second column,74.923
same,"YFP fluorescence quenching using Varenicline, 500 nM var",first column,79.048
same,"YFP fluorescence quenching using Varenicline, 500 nM var",second column,80.337
same,"YFP fluorescence quenching using Varenicline, 1 uM var",first column,79.766
same,"YFP fluorescence quenching using Varenicline, 1 uM var",second column,76.836
B2,YFP fluorescence quenching using CNL001 (percent quench),[1],−9.942%
same,YFP fluorescence quenching using CNL001 (percent quench),[2],−0.475%
same,YFP fluorescence quenching using TC-5619/Bradanicline (percent quench),1 nM brd (TC-5619/Bradanicline),−2.39%
same,YFP fluorescence quenching using TC-5619/Bradanicline (percent quench),[3],−4.08%
same,YFP fluorescence quenching using CNL001 (percent quench),[4],17.889%
same,YFP fluorescence quenching using CNL001 (percent quench),[5],38.46%
same,YFP fluorescence quenching using TC-5619/Bradanicline (percent quench),10 nM brd (TC-5619/Bradanicline),−3.3%
same,YFP fluorescence quenching using TC-6683 (percent quench),30 nM TC-6683,−13.84%
same,YFP fluorescence quenching using TC-5619/Bradanicline (percent quench),[6],−9.69%
same,YFP fluorescence quenching using CNL001 (percent quench),[7],61.741%
same,YFP fluorescence quenching using CNL001 (percent quench),[8],69.159%
same,YFP fluorescence quenching using ABT-126 (percent quench),50 nM abt (ABT-126),−18%
same,YFP fluorescence quenching using CNL001 (percent quench),[9],73.635%
same,YFP fluorescence quenching using CNL001 (percent quench),[10],76.092%
same,YFP fluorescence quenching (percent quench),100 nM CNL002,−14.53%
same,YFP fluorescence quenching using ABT-126 (percent quench),100 nM abt (ABT-126),−16.39%
same,YFP fluorescence quenching using AZD-0328 (percent quench),100 nM azd0328,11.33%
same,YFP fluorescence quenching using TC-5619/Bradanicline (percent quench),100 nM brd (TC-5619/Bradanicline),−1.05%
same,YFP fluorescence quenching using TC-6683 (percent quench),300 nM TC-6683,−20.66%
same,YFP fluorescence quenching using ABT-126 (percent quench),300 nM abt (ABT-126),−15.05%
same,YFP fluorescence quenching using AZD-0328 (percent quench),300 nM azd0328,44.15%
same,YFP fluorescence quenching using TC-5619/Bradanicline (percent quench),[11],10.53%
same,YFP fluorescence quenching using CNL001 (percent quench),[12],80.633%
same,YFP fluorescence quenching using CNL001 (percent quench),[13],79.637%
same,YFP fluorescence quenching (percent quench),1 uM CNL002,6.45%
same,YFP fluorescence quenching using ABT-126 (percent quench),1 uM abt (ABT-126),−5.56%
same,YFP fluorescence quenching using TC-5619/Bradanicline (percent quench),1 uM brd (TC-5619/Bradanicline),34.72%
same,YFP fluorescence quenching using TC-6683 (percent quench),3 uM TC-6683,−17.86%
same,YFP fluorescence quenching (percent quench),10 uM ach (acetylcholine),−9.13%
same,YFP fluorescence quenching (percent quench),30 uM CNL002,57.43%
same,YFP fluorescence quenching using TC-6683 (percent quench),30 uM TC-6683,−18.91%
same,YFP fluorescence quenching using AZD-0328 (percent quench),30 uM azd0328,80.96%
same,YFP fluorescence quenching using TC-6683 (percent quench),100 uM TC-6683,−16.88%
same,YFP fluorescence quenching (percent quench),100 uM ach (acetylcholine),−9.29%
same,YFP fluorescence quenching (percent quench),1 mM ach (acetylcholine),0.57%
same,YFP fluorescence quenching (percent quench),3 mM ach (acetylcholine),35.37%
same,"YFP fluorescence quenching using Facinicline, 30 nM fac",,1.24
same,"YFP fluorescence quenching using Facinicline, 300 nM fac",,46.92
same,"YFP fluorescence quenching using Facinicline, 10 uM fac",ligand Facinicline 10 uM,79.06
same,"YFP fluorescence quenching using Facinicline, 30 uM fac",,81.06
same,"YFP fluorescence quenching using TC-6987, 1 uM tc6987",,−0.14
same,"YFP fluorescence quenching using TC-6987, 3 uM tc6987",ligand TC-6987 3 uM,−8.32
same,"YFP fluorescence quenching using TC-6987, 5 uM tc6987",ligand TC-6987 5 uM,−2.13
same,"YFP fluorescence quenching using TC-6987, 10 uM tc6987",,0.13
same,"YFP fluorescence quenching using TC-6987, 30 uM tc6987",ligand TC-6987 30 uM,−6.86
same,"YFP fluorescence quenching using TC-6987, 50 uM tc6987",ligand TC-6987 50 uM,−9.5
same,"YFP fluorescence quenching using TC-6987, 100 uM tc6987",ligand TC-6987 100 uM,−10.98
same,"YFP fluorescence quenching using TC-6987, 300 uM tc6987",ligand TC-6987 300 uM,−12.16
same,"YFP fluorescence quenching using TC-6987, 500 uM tc6987",,−2.41
same,"YFP fluorescence quenching using Varenicline, 3 nM var",first column,0.398
same,"YFP fluorescence quenching using Varenicline, 3 nM var",second column,3.947
same,"YFP fluorescence quenching using Varenicline, 30 nM var",first column,5.31
same,"YFP fluorescence quenching using Varenicline, 30 nM var",second column,7.666
same,"YFP fluorescence quenching using Varenicline, 300 nM var",first column,4.327
same,"YFP fluorescence quenching using Varenicline, 300 nM var",second column,3.275
same,"YFP fluorescence quenching using Varenicline, 500 nM var",first column,1.835
same,"YFP fluorescence quenching using Varenicline, 500 nM var",second column,4.863
same,"YFP fluorescence quenching using Varenicline, 1 uM var",first column,9.471
same,"YFP fluorescence quenching using Varenicline, 1 uM var",second column,7.505
